Experiment: soluble on expression in E. coli; label from the status in PepcDB or PDB records

Row | Sequence | soluble on expression in E. coli
1 | MNDDKLRSLFASLATLTQQGPIPVQAYSMLAGQHSTEVLAEHMRLRWLSDGRFGPVAANILMHIHKSDPKDISLSSNVLALLLNDYRNRLSVRNDSRLMFRNCVKTLFSMYPVYVKMDECVSKCFIKPMFSSLDALIDDAPDTEDLETAGILLSENGRVLHDLNSYLVERIIVKLRHKLISEDPIVTKHVRQIFIHVYDLWAFGWSELNIPECLLTLSAEGKLSIVDQTPLRKNDISKQEFGSKESIV | not soluble
2 | MTELAQLQASTEQAAALLKAMSHPKRLLILCMLSGSPGTSAGELTRITGLSASATSQHLARMRDEGLINSQRDAQRILYSIKNEAVNAIIATLKNVYCP | not soluble
3 | ENPRNVGSLDKTSKNVGTGLVGAPACGDVMKLQIQVDEKGKIVDARFKTFGCGSAIASSSLATEWVKGKTVEEALTIKNTDIAKELCLPPVKLHCSMLAEDAIKAALADYKLKQESK | soluble
4 | SNAMTDAVLELPAATFDLPLSLSGGTQTTLRAHAGHWLVIYFYPKDSTPGATTEGLDFNALLPEFDKAGAKILGVSRDSVKSHDNFCAKQGFAFPLVSDGDEALCRAFDVIKEKNMYGKQVLGIERSTFLLSPEGQVVQAWRKVKVAGHADAVLAALKAHAKQ | soluble
5 | MPPPNKRQKHARICGFMGTLARKKKEIEQQEALMKLHNLPLTYTEDQYKIVKEESTIYKNRFETAAAKNVELLKATDELKKELEFLKRQPGNQFKVDKKLKSEIDSAEEESKFYKNCFETTAAENVELLKVTDQLKKELEFLKAQQGNQFKVDMKIKSEMESATQSNLILLREKEMWKDRFNDVLSEKLALSARIRNVIGDRSESVEVPNDSNRDIWELREDLEMERSARRKAEEELKILKMTSSRGSMHISRDSTNQTPNEILLSMAIRLDSTSSN | not soluble
6 | MFDRYESGERAVLVHINFTQEGEWEDLAEFEMLVSSAGVETLQVVTGSRQSPHPKYYVGEGKAQEIATTVHLTGAEIVIFNHSLSPAQERNLEALCKCRVLDRTGLILDIFAQRARTHEGKLQVELAQLRHISTRLIRGWTHLERQKGGIGLRGPGETQLETDRRLLRERIKAILRRLEKVAKQREQGRRARNRAEIPTISLVGYTNAGKSTLFNRITEAGVYAADQLFATLDPTLRKMELADVGPAILADTVGFIRHLPHDLVAAFKATLQETQEADILLHVVDASDERFRENIQAVHEVLEEIDAHEVPTLVVMNKIDNLESQTPRIERDEEGVPRAVWVSAMEGLGIELLFDALTERLASQMVEHQLRIPPQYQGRFRSTFFQMKCIQREEYDQDGNLLIDIRMQQVDWSRLEKREGAVLTDFIVTLEHHHHHH | not soluble
7 | MGSDKIHHHHHHMNFQIVINNIQHIGYAELDVDLNASGIICIVGKNGVGKTTLIKAILNLKSADTFSRTASPGIFKANSSMRCTYGENSYEFSFDSDINDLNSRSPIPEELKSVIDVELPMPFGQRFNNYQNIMSADMDIRTALILGEYEVPVELISFLSDIYKTNKFNGLVEVSAKGGSYYCIPLDDDRYVREDHLSSGEFFLISLYRKIKGRSKFIVIDEIDISLDAAAQAHLIGWLRRFCTTEQVKVVFTTHSLALMRTLKDGELFYMEESEGKVSVIPSSYNYIKSVLFGFKGWDRYILTEDAMLKSLLEYVLANYCSGLFFSYQIIHVGGGSNVVDLMRQNSTEGFFSTPENVISVLDGDQAEYRYARRPNVYCIPFLSVEKAIFAEYKAGRFLPELAPDPRFDTPKNFCSAIGRDRHATEADIIKYLCDSYPTEVRRFAQTLSDFLS | not soluble
8 | MAHHHHHHMGLEDIDVDDPPLTTSATPQTQKQCSSTLPNPPVTNVVKGASAPVDLVDLFGDLNVSTATPVVVTAATVGAATNSKNQAHYAGNTADDDFEWVTAKPSVAPPLAPKSYQGNAGTSNDPLDSFFSQAVPTPAATETAKPPDSSNDLFDFSEPVERVKYTNENTLLEAFANQGKANQGGGSKGPTLADLSKGSSDNVVKARLLKLMNYYDVLGVTPDATEAVIRQRFKKKALELHPDRVGRDQTPEEVELFKVMTKAHEVLTDPEERAKYDAQLLGGVPSGSPDSDWFFPPS | soluble
9 | MPQSESNIALLIDADNAPASKIEAIVSEIAKYGVANIRKAYGNWKSPNLKAWEECLHEYAIRPVQQFDYTKGKNATDAAMIIDAMDLLYTQRLDAFAIVSSDCDFTPLVMRILTNGLKVYGFGEKKTPLPFVYACSTFLYLESIDQIENSEGATQSSTSVKKTGKELKQDAKLISLLRSAISSTIDDDGWSSLAEIGGHIKNQASFDSRNYGYAKLSSLFEAIDLFEIERKNRAIYVRNRQKKSATSKSLEHHHHHH | soluble
